Reference: EP4778940A1 (Artivila (ShenZhen) Innovation Center, Ltd., dated 2026)

How the values were obtained:
[1] = target: T1, human HHLA2 proteins (Acro Biosystems, B77-H52H5) (human, UniProt Q9UM44 23-344); test: ELISA, human HHLA2 protein coated
T1 construct: Bought recombinant protein coated on the ELISA plate; also called B7-H7; B7y
T1 sequence (looked up): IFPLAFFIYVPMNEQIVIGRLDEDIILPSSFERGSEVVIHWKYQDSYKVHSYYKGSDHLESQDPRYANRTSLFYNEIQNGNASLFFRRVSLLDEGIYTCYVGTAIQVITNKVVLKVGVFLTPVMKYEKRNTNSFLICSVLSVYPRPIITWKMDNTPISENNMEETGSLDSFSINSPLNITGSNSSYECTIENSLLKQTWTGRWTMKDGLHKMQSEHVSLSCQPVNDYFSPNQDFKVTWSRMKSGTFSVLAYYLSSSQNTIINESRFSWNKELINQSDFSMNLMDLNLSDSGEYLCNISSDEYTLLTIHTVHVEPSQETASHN

[2] = target: T2, human HHLA2 on cells (K562-hHHLA2; HCC827) (human, UniProt Q9UM44 23-414); test: flow cytometry on K562-hHHLA2 cells
T2 construct: whole, on cells; also called K562 cells overexpressing human HHLA2; HCC827 cell line highly expressing human HHLA2
T2 sequence (looked up): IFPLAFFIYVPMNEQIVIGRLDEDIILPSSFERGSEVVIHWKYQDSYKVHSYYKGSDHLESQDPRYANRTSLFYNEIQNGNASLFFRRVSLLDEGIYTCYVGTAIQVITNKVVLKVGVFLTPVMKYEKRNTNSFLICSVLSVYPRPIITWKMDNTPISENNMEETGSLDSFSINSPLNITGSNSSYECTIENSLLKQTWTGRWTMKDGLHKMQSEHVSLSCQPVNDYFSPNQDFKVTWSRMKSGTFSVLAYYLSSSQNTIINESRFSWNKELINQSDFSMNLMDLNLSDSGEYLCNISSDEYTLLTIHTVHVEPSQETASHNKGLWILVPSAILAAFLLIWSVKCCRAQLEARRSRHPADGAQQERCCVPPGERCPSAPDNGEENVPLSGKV

[3] = target: T2, human HHLA2 on cells (K562-hHHLA2; …); test: cell-based or functional assay
[4] = target: T2, human HHLA2 on cells (K562-hHHLA2; …); test: flow cytometry on HCC827 tumor cells highly expressing human HHLA2

B1: Ab01-122M1 (antibody, V domains shown)
VH: DVQLQESGGGLVQPGGSLKLSCTASRRIFTFTAAGWYRQAPGQQREFVAVIANGGHTNYADSVKGRFTISRDNAKNTVYLQMNSLKPEDTAVYYCNTPPAFGSWGPGTQVTVSS
B1: binds [1]; binds [2].

B2: Ab01-126M1 (antibody, V domains shown)
VH: DVQLQESGGGLVQPGGSLRLSCTASTRIFTFSAAGWYRQAPGKQREFVAVITGGGHTNYADSVKGRFTISRDNAKDTVYLQMNSLKPEDTAVYYCNTPPAFGSWGPGTQVTVSS
B2: binds [1]; binds [2].

B3: Ab01-91M2 (antibody, V domains shown)
VH: DVQLQESGGGLVQPGGSLRLSCAASGFTFSNYLMGWYRQAPGKERELVAAINSAGYSTVYAESVKGRFTTSRDNAKSMVYLQMNSLKAEDTAVYYCNARYDRWHDYWGQGTQVTVSS
B3: binds [1]; binds [2].

B4: Ab01-63M2 (antibody, V domains shown)
VH: DVQLQESGGGLVQPGGSLRLSCAASGFTLDYYVIGWFRQAPGKEREGVSCISSSDGSTYSADSVKGRFTISRDNAENTVYLQMNSLKPEDTAVYYCAARRSPGIEGWCALPFFFGSWGQGTQVTVSS
notes: also called candidate parental antibody Ab01-63M2
With B4 the “EC50 (nM), promoting the killing effects of NK92MI on target cells (K562 overexpressing human HHLA2)” value [3] was 0.125 nM and the EC50 [4] was 0.043 nM.

B5: Ab01-63Ghm25 (antibody, V domains shown)
VH: EVQLLESGGGLVQPGGSLRLSCAASGFTLDYYVIGWFRQAPGKEREGVSCISSSTGSTYSADSVKGRFTISRDTSKNTVYLQMNSLRAEDTAVYYCAARRSPGIEGWCALPFFFGSWGQGTLVTVSS
notes: Humanized or engineered mutant of Ab01-63G4; also called mutant Ab01-63Ghm25
B5: binds [1].

B6: Ab01-63Ghm28 (antibody, V domains shown)
VH: EVQLLESGGGLVQPGGSLRLSCAASGFTLDYYVIGWFRQAPGKEREGVSCISSSTGSTYSADSVKGRFTISRDTSKNTVYLQMNSLRAEDTAVYYCAARRSPGIEGWCALPEFFGSWGQGTLVTVSS
notes: Humanized or engineered mutant of Ab01-63G4; also called mutant Ab01-63Ghm28
B6: binds [1].

B7: Ab01-63Ghm26 (antibody, V domains shown)
VH: EVQLLESGGGLVQPGGSLRLSCAASGFTLDYYVIGWFRQAPGKEREGVSCISSSTGSTYSAQSVKGRFTISRDTSKNTVYLQMNSLRAEDTAVYYCAARRSPGIEGWCALPFFFGSWGQGTLVTVSS
notes: Humanized or engineered mutant of Ab01-63G4; also called mutant Ab01-63Ghm26
B7: binds [1].

B8: Ab01-84M2 (antibody, V domains shown)
VH: DVQLQESGGGLVQAGGSLRLSCAASGFPFDDYSIGWFRQAPGKAREGISCISSTHGTTYYTDSVKDRFTITRDNAKNTVYLQMNNLKPEDAAVYYCAAGLDGLACHRRDSGSRYRTQLYDYWGQGTQVTVSS
B8: binds [1]; binds [2].

B9: Ab01-7M2 (antibody, V domains shown)
VH: DVQLQESGGGLVQPGGSLRLSCAASGFTFSSTPMYWYRQAPGKERDFVAIMAPGGYEDIADSVRGRFSISRDNGNNTMYLQMNSLKPEDTALYYCRALNSWGQGTQVTVSS
B9: binds [1]; binds [2].

B10: positive control antibody 2C4 (antibody, V domains shown)
VH: EVHLQQSGPELEKPGVSVKISCKASGFSFTDYNMNWVKQSSGKSLEWIGNIDPYYGRINYNQKFKGKATLSVDKSSSTAYMHLKSLTSEDSAVYYCATGAYTSGYSWFAYWGQGTLVTVSS
VL: ENVLTQSPGIMAASLGEKVTMTCSASSSVSSSYLHWYQQRSGASPKPLIHRTSNLASGVPARFSGSGSGTSYSLTISSVEAEDDATYYCQQWSGYPFTFGSGTKLEIK
notes: also called positive control 2C4; positive antibody
With B10 the “EC50 (nM), promoting the killing effects of NK92MI on target cells (K562 overexpressing human HHLA2)” value [3] was 0.192 nM and the EC50 [4] was 0.281 nM.

B11: Ab01-121M1 (antibody, V domains shown)
VH: DVQLQESGGGLVQPGGSLRLSCAASGSRFSFNVMGWHRQAPGKQRELVALISSGGTANYADSVKGRFTISRDNAGNTMYLQMNTLKPEDTAVYYCTATTPVGQYWGQGTQVTVSS
B11: binds [1]; binds [2].

B12: Ab01-110M1 (antibody, V domains shown)
VH: DVQLQESGGGLVQTGGSLRLSCAAPGFTLDDYAIGWFRQAPGKERERISCITSSTNRTYYANSVKGRFTISRDSAKNTVYLQMNSLKPEDTAVYYCAAEPILCVLWSAGGAMDYWGKGTQVTVSS
B12: binds [1]; binds [2].
